How the values were obtained:
[1] = molecular target: ubiquitinated peptide 20 (full Ub linked through a native isopeptide bond to the H2B 8-mer AVTKYTSK) (human)
[2] = molecular target: ubiquitinated peptide 24 (full Ub linked through a native isopeptide bond to a 31-mer from the C-terminus of H2B) (human)
[3] = molecular target: doubly labelled ubiquitinated peptide 32: Dnp-labelled Ub linked through a native isopeptide bond to MCA-(Nle)FKTEG (FRET substrate) (human)

## recombinant human UCH-L3 (ubiquitin C-terminal hydrolase) (from UniProt P15374) (enzyme)
[1]
  percent hydrolysis, HPLC (% hydrolysis within 30 minutes): 75
[2]
  percent hydrolysis, HPLC (% hydrolysis within 30 minutes): 25
[3]
  increase of fluorescence emission upon cleavage (FRET assay) (fold increase in fluorescence): 6

Reference: patent US20130143251A1
